Broadly, the kcat is the number of substrate molecules converted per active site and unit of time at saturation. In general, kcat/Km refers to the second-order rate constant that governs catalysis at low substrate concentration.

Substrate in data set [1]: O=CC(O)COP(=O)(O)O
Description: purified protein. The following applies: non-glycated enzyme, 10 mM NAD+, 3 mM DTT, 10 mM sodium phosphate pH 8.5, 100 mM NaCl, 25 °C.

Substrate in data set [2]: O=CC(O)COP(=O)(O)O
Description: purified protein. It is filed as biochemical, Arabidopsis thaliana. Conditions: non-glycated enzyme, 0.1 mM NADH, alpha-glycerophosphate dehydrogenase 5 U, 10 mM sodium phosphate pH 7.0, 100 mM NaCl, 25 °C.

B1: GAPC1 (cytosolic glyceraldehyde-3-phosphate dehydrogenase C1) (Arabidopsis thaliana) (protein)
chain: MADKKIRIGINGFGRIGRLVARVVLQRDDVELVAVNDPFITTEYMTYMFKYDSVHGQWKHNELKIKDEKTLLFGEKPVTVFGIRNPEDIPWAEAGADYVVESTGVFTDKDKAAAHLKGGAKKVVISAPSKDAPMFVVGVNEHEYKSDLDIVSNASCTTNCLAPLAKVINDRFGIVEGLMTTVHSITATQKTVDGPSMKDWRGGRAASFNIIPSSTGAAKAVGKVLPALNGKLTGMSFRVPTVDVSVVDLTVRLEKAATYDEIKKAIKEESEGKLKGILGYTEDDVVSTDFVGDNRSSIFDAKAGIALSDKFVKLVSWYDNEWGYSSRVVDLIVHMSKA
As to B1, in the data set “purified protein [1]”, the Km was 0.77 (±0.21) mM, the catalytic constant (kcat) was determined as 76.4 s⁻¹ and the kcat/Km came to 99000 M⁻¹ s⁻¹.

B2: TPI (chloroplastic triosephosphate isomerase) (Arabidopsis thaliana) (protein)
chain: MAGSGKFFVGGNWKCNGTKDSIAKLISDLNSATLEADVDVVVSPPFVYIDQVKSSLTDRIDISGQNSWVGKGGAFTGEISVEQLKDLGCKWVILGHSERRHVIGEKDEFIGKKAAYALSEGLGVIACIGEKLEEREAGKTFDVCFAQLKAFADAVPSWDNIVVAYEPVWAIGTGKVASPQQAQEVHVAVRGWLKKNVSEEVASKTRIIYGGSVNGGNSAELAKEEDIDGFLVGGASLKGPEFATIVNSVTSKKVAA
notes: measured mass 29273 Da; homodimer
For B2, in the data set “purified protein [2]”, the Km was 1.21 (±0.39) mM, the kcat was found to be 18.4 ± 2.25 s⁻¹ and the kcat/Km was determined as 15000 M⁻¹ s⁻¹.

The record behind these values is PMC6322573, “Profiling of advanced glycation end products uncovers abiotic stress-specific target proteins in Arabidopsis” (Journal of Experimental Botany, 2018).
